According to the DeepSol protein solubility set:

Assay: soluble on expression in E. coli; label from the status in PepcDB or PDB records

**Q.** Which “soluble on expression in E. coli” value does the source give for “MGSDKIHHHHHHMERVLIIGALTFVGYHLVNKMIAEEVEVYGLDFDEFDSMTKINEEKLLLIGRNALFTYYSIRDEDGWRSVEEEKFDAVYFCLYEPNQQRGFRNERVILQYLKRMIRLCEEHKVKLNLISSIEVGNADESENKRLFSKVEEGLKKGEVQYSVFRVPTLYGPWQPSFMMYHQLMLSELGEKECHYAGEENGSDLLYVEDVCEYLWENGMNEEHLGIYNLLSGKKSLWKKGMNLLRAEDKVNKENAEERDGAAEDILIKRNTPLEYGLNKQLAHMKKYKELYEG” here?
**A.** Its value is “not soluble”.

**Q.** With “SNSSPPPANSANGDTTNNGENGQDLNLNFLDKIRLSTKRDAKEDEGEELPTELNTINSAGGFLVVSPDKLSVKYTNTNLHGHDVGVVQANKPAPIKCLTYYFEIFVKDSGIKGQIAIGFTKESFKMRRQPGWEVNSCGYHGDDGYLYRGQGKGEPFGPKFTKDDAVGGGINYASQEFFFTKNGTIVGKIPKDIRGHLFPTVAVHSQNEEVLVNFGKKKFAFDIKGYEASERNKQQLAIEKISIPPNIGYGLVKTYLLHYGYEETLDAFNLATKNTVPPIHIDQENAIDEDDSSYALKQRKNLRQLVRNGEIDTALAELQKLYPQIVQDDKSVVCFLLHCQKFIELVRVGKLEEGVNYGRLELAKFVGLTGFQDIVEDCFALLAYEKPEESSVWYFLEDSQRELVADAVNAAILSTNPNKKDVQRSCHLQSHLEKLLRQLTVCCLERRSLNGDQGETFRLRHVLNNNR” as the sequence, how does the “soluble on expression in E. coli” value read?
**A.** Its value is “soluble”.

**Q.** With “MGSDKIHHHHHHMSLHYSVLASGSTGNALYIESEQTRLLVDAGLTGKAMLALFDQIHRSPEKIDGLFVTHEHSDHIKGVGIMARKYNIPLYANEKTWAAMEAKIGKIDPALKFLWEVGEVKQFGDIEVESFNVSHDAADPMFFQFAHEGKRLAHITDTGYVSDRMKGVIRGADAYIFEANHDIGMLQMGHYPWSVKRRILGDYGHVSNEDAAIAMSEVLDDRTKRIHMAHLSKDNNMKELARMSVSQTLASRDVDLSKIQLLDTDPVIPTPLLKL” as the sequence, how does the “soluble on expression in E. coli” value read?
**A.** Its value is “not soluble”.

**Q.** For “MSLGYDVIFVSGVAKARFRRRMRKLVLCITALLLSGCSREFIEKIYDVDYEPTNRFAKNLAELPGQFQKDTAALDALINSFSGNIEKRWGRRELKIAGKNNYVKYIDNYLSRSEVNFTEGRIIVETVSPIDPKAHLRNAIITTLLTPDDPAHVDLFSSKDIELKGQPFLYQQVLDQDGQPIQWSWRANRYADYLIANHLKVKQVDFKKAYYVEIPMVKDQIDIRGYKYASIVRKASRKYDIPEDLIYAIIKTESSFNPYAVSWANAYGLMQVVPKTAGRDVFKLVKNRSGEPSPEYLFNPENNIDTGTAYFYILKNRYLKEVRHPTSLEYSMISAYNGGTGGVLSTFSSDRQRAMRDLNALQPNQVYWALTKKHPNAEARRYLEKVTKFKKEFNAGEGHHHHHH”, which “soluble on expression in E. coli” value is on record?
**A.** The value was “not soluble”.

**Q.** With “MTYFVVEVTDQEIRREKDKARELRRSRWWQTVISRRTCHWCGGDFPPEELTMDHVVPIVRGGKSSRGNVVPACKECNNRKKYLLPLEWEEYLEKARNGGEQLEHHHHHH” as the sequence, how does the “soluble on expression in E. coli” value read?
**A.** Its value is “soluble”.

**Q.** For “MKSSMAMIKHKKELVEYARHLKLPNLAEHVGVILHEAQEKQLTYSEFLANCLAREIQGRERKSYLTRLKLSGLPAKYDLDLYDYDRAEGMDNRRLRELRELVWVNQAYNLLLVGPSGTGKTFIAAGLVYEAVKAGYEAYLMTLEELLTCLKTKEVSAHAMKTYKRIMKARLLAIDDATLFPLKREEAVLLFKLVNDFQERTSLIITANKALTRWLETLEDEAVTAALLDRLLYCCEIIRLGGTSYRMQNRKTIFSNQNTDIGTLEHHHHHH”, which “soluble on expression in E. coli” value is on record?
**A.** The value was “not soluble”.

**Q.** Which “soluble on expression in E. coli” value does the source give for “MSLEWCKNRLEITGRSVFVDIMQQWVTGEEVPLYRHAIQQSIRLFLAGCAGILKPVKCMEYPPFPRLVSHGTGSAVASNLAFQHWLDLLLKDAVLDGDTIRQIDRIYLQSGIASVKWETIPEGARQIITQLMARQYPDWFGVASWSSHINGADCWTKLGVMQEHACNCDMLMIIPTRLAIELNGNSQLLTGVSTTHDLYSHLYGMAWPSGQNIIWQRDRINSLRLDFDSPSYPPSAELMGELSAVFDCEIRHWYQEPVNGIRGYDCYDRGDHVDSGEYGAGPFLPPLKVEEVTVNGQEEAAEGHHHHHH” here?
**A.** Its value is “soluble”.

**Q.** Which “soluble on expression in E. coli” value does the source give for “MGSDKIHHHHHHVYKALFFDVDDTLLNFEQCSREALGKTFRHFSMDYDDTVYELFRSIDQRLWLQQKQGELTVQDVINLRFQELFKQLQLGCSHIPLQTMFQERLAEEFFTEPHAAESLGYLSARYQLFVTSNGILKTQLKRLELAGLLPYFTDVFVSDHIGHEKPSVRFFEECLQRSRLKPSEVLLIGDSLEADMVGAQTSKMDSCWYNPKHRNTDSDVEIDYIISDLLQLKDILQ” here?
**A.** Its value is “not soluble”.

**Q.** Which “soluble on expression in E. coli” value does the source give for “MGHHHHHHSHMSPVLTQHVSQPITLDEQTQKMKRHLLQDIRRSAYVYRVDCGGCNACEIEIFAAITPVFDAERFGIKVVSSPRHADILLFTGAVTRAMRMPALRAYESAPDHKICVSYGACGVGGGIFHDLYSVWGGSDTIVPIDVWIPGCPPTPAATIHGFAVALGLLQQKIHAVDYRDPTGVTMQPLWPQIPPSQRIAIEREARRLAGYRQGREICDRLLRHLSDDPTGNRVNTWLRDADDPRLNSIVQQLFRVLRGLHD” here?
**A.** The value was “not soluble”.

**Q.** Which “soluble on expression in E. coli” value does the source give for “MSLKIIDGNIASPLGFSADGLHAGFKKRKKDFGWIVSEVPASVAGVYTTNKVIAAPLIVTRESVKKAQKMQALVVNSGVANSCTGLQGMEDAYTMQKWTATKLKIAPELVGVASTGVIGDLMPMDTLQKGLSKLVVNGNSDDFAQAILTTDTKVKTVAVTEQFGRDEVTMAGVAKGSGMIHPNMATMLAFITCDAVISSETLQLALSQNVETTFNQITVDGDTSTNDMVLVLSNGCTLNKEILPDTPEFDKFSAMLHFVMQELAKKIAKDGEGATKLIEVEVINAPNSLDACMMAKSVVGSSLVKTAIFGEDPNWGRILAAVGYAGVDVPVDNIDIYLADIPVMLASSPVDFDEEDMQDVMRADTIKIIVDLHAGDSVGKAWGCDLSYDYVKINALYRTEGHHHHHH” here?
**A.** The value was “soluble”.

**Q.** Which “soluble on expression in E. coli” value does the source give for “MLSALACNMKYSSHPAAVAAGRGGNRRGGRMYAYERITDPAGFAAIEDEWRALAEACGGGGVFASHAFLLSWAETFGQGRRLAVSLLRHKGALVGALPMFHTGQARAVAAMGEGRAGMAQWLLHPDLPDADAALAALLRPDWLSFWRLEPLETPDAEALERAARRAGLAVRRKATMRACSVTTEGDFDSYLGGLKSKTRQVFRRSERKLAEMEVRDLRSDRDGRAALDAYLAASRASWKGLTGTGYGAAPEGVAFVEKLFERLGPEACYLAARQVGEVAISGRFVLVHDNMHYGMANDFNEEYADLAVGRNSIMQSVRDAFEGGAAGFDFTRCNGLVREVSTDERPLERVLIHRRGDPTLAAFFAARGLRRLRRKASGWQKGRRGVVS” here?
**A.** The value was “not soluble”.

**Q.** For “MFMGKLPHQADLIGALIEAAGANGIRAGAIQVIGALQGAKLGFYDQWSKSYRELPFAKPLEIVSGLGNISLRDGRPFVHLHLSISDEEGKVFGGHALEGCTIFAAEYAIMPLPGSAPVRVFDETTGLFLWEREQYPASGQKGLSPELERALLNPLEHHHHHH”, which “soluble on expression in E. coli” value is on record?
**A.** The value was “soluble”.

**Q.** Which “soluble on expression in E. coli” value does the source give for “MIPRPIPEPSPDLYTEEEVSKLVHEFYAKARKDAALGPIFEEHVIDWDAHFVQMTNFWSAQLRGTSRFRGAPMPKHIALPELNETLFKRWLQLFRQTTLELGNPLLKQHADTVAEFIAGRLWMGYQMSHFPHREPADLNTSEV” here?
**A.** The value was “not soluble”.

**Q.** Which “soluble on expression in E. coli” value does the source give for “MDNQKRPFTTRFDHYNYNVLNLERSLAFYDRAFGFREVKRKEAADGSFILVYLGDVYGHFLLELTWLRDRKEPYNLGENEVHLCVRTTGDYDAVREYHRAMGCICYENEQMGLYFVNDPDGYWIEVLPENRD” here?
**A.** The value was “not soluble”.

**Q.** Which “soluble on expression in E. coli” value does the source give for “TAILVTTRDGTRTEIQAEPGLSLMEALRDAGIDELLALCGGCCSCATCHVLVAPAFADRLPALSGDENDLLDSSDHRTPHSRLSCQITINDKLEGLEVEIAPED” here?
**A.** Its value is “soluble”.

**Q.** With “MRIGIVCPYSFDAPGGVQAHVLDLAEKFISQGHHVEVLGPASESTQLPDFVTRGGASLPIPYNGSVARLSFGPSTFIRARDFINRGQFDVLHIHEPNSPSFSMAALKVARGPIVATYHASSNRSLALKFALPFLRGQLEKIRGGIAVSEMARRWQVEMLGGDPILIPNGVETSQFELDKKPLWSGRIPEIVFLGRLDEHRKGLDILLRAVDRLDHEVRVTVIGGGTHPPAPRIDFVGRVSDEEKAEILGRADIYVAPNRGGESFGIVLVEAMAAGCVVVASDLEAFSAVCDAQSSQPSGILFRNGDADDLASTLRNVIENPKFGQELVTSGTQRAKEFDWDNVSKEIMRVYETVCDGTTVTAA” as the sequence, how does the “soluble on expression in E. coli” value read?
**A.** Its value is “not soluble”.

**Q.** Which “soluble on expression in E. coli” value does the source give for “MGSDKIHHHHHHMNKDFTFTIKSIRLDEDYHPSDSTRITTNFANLARGSYRQANLRNALKMIDNSFNALANWDNPKGDRYSVELEIISVDMDIEGSGKTFPSIEILKTNIVDHQTNQRIEGIVGNNFSSYVRDYDFSVLLQAHNKDQPNFSIPDNFGELHGKLFQYFVNSNAYKQNFKKTPVICLSVSDNKTYHRTENQHPVLGVEYQPNESSLTEQYFKKMGLQVRYFMPPNSVAPLAFHFFGDLLNDYTNLELISTISTMGTFQKIYRPEIYNANAAAGKSYQPNLKNLDHSLTQIVYDREERSKLANEQGKFAEKHFIKPYQTVLEQWSANYV” here?
**A.** The value was “not soluble”.

**Q.** For “MWQAISQQLSDTLLFEYQITEKVRLSGGDISESYMINDGEQRYFVKINDREFLHKFEVEAESLHLLRETSTIFVPEVVLVGKTKNNAFIILNYLPTKPLDDPENSFKFGQQLAQLHQWGEQKEFGFDTDNYLGSTLQPNQWHKKWCMFFAEQRIGWQLQLLKEKGVTLVDIDDFIDVVKQLLANHTPEPSLLHGDLWNGNVALTAFGPICFDPACYWGDRECDIAMTELFGGFQPEFYQGYESVMPLLPGYHERKDIYNLYHILNHCNLFGGHYLEQAQLTINKIISYLEHHHHHH”, which “soluble on expression in E. coli” value is on record?
**A.** The value was “soluble”.

**Q.** For “MSLADVQQFPESIAELVPKFHVLKLPMVTRFRSITEREVMLFEGPDGWAEFSPFTEYGSVESSRWLQAALEFAGLLPTAEVEPSAVGSAAETVGQSVAVNATLPACATSEVGPILARYGPVGTVKAKVAEHGIDSLPEDWDRLREFRRLFPETTLRLDANAGYALPEALAACTEFAEFDLQYFEQPVAAVEDMARLREQLSARELPVVLAADESIRKAEDPVRVAELGAAEVVIVKVQPLGGIAAARSVLEACGLPAVVSSALESSVGLAAGAQLAATLPRTQRSRELLGEHPACGLGTGRLFAEDVVEPAQSLRPVDGQIPVTRIVPDPQRLETLAVDPGRFDWWEKRLQECWTALLSRRSEGHHHHHH”, which “soluble on expression in E. coli” value is on record?
**A.** The value was “not soluble”.

**Q.** For “QSATARPMAIALGVAEPAPRGFLLIGANRVAREIGQALARYDRRVLMTDSNWEYISQVRMMGLDYYYGNPISSHADDNLNMIGIGQVVALTPDQHFNIMACMQFVDEFGEDKVHCLQKVKTNGNGSEKHSVAQEYHGKLLMGGNVSYTQLASLLSRGAEIKHTKLSENFTYQDYLEHHKTNLVIPLFNVEDKGKIQFCDDPDQFAPSTTSTIVSLILPESAQ”, which “soluble on expression in E. coli” value is on record?
**A.** Its value is “not soluble”.

**Q.** For “DQALATALPGKWIHLRILALANAHIVIDEVHTLDHYQTALLENILPILAKLKTKITFLTATMPSWQRTKLLTAYGGEDLQIPPTVFPAAETVLPGQFNRTLIDSDSTTIDFTMEETSYDHLVESHVKWHQTTRLNAPHARIGLICNTVKRAQEIAAALEKTNDRIVLLHSRMTTEHRRRSAELLESLLGPNGNRKTITVVGTQAIEASLDIDLDILRTELCPAPSLVQRAGRVWRRNDPYRSSRITADHKPISVVFIAEAEDWQVLPYLRAETSRTQRWLEKHNQMFLPQMAQEFIDAATVDLDTATSEMDLDALALMGIHLMKADGAKARIQDVLNSDSKVSDFALLTSKNEIDEAQTRLIEEGTHLRIILGDENESIPGGWKHGLSSLLKLKASDRESLRTALLASIPLLVSEKQKQLLYQHN”, which “soluble on expression in E. coli” value is on record?
**A.** The value was “not soluble”.
